Tested on: TN1 PDX tumor cells
Experiment: ex vivo aggregation (clustering) assay of dissociated PDX tumor cells, IncuCyte time-lapse imaging
Assay type: cell-based, human
Conditions: media supplemented with EGF (10 ng/ml)
Description: Cell clustering assay. Freshly dissociated primary tumor cells in single cell suspension were seeded in collagen type I-coated 96-well plates. The plates were put into the IncuCyte live cell imaging system (Essen BioScience), and live images were taken every 2-4 h for up to one week. The cluster number and size were analyzed by Incucyte ZOOM software (Essen BioScience). In specific experiments, primary tumor cells might be sorted based on the expression of CD44 prior to seeding. In other experiments, seeded tumor cells might be transfected with siRNAs (100 nM) or treated with various inhibitors during the clustering assays. For cell viability analysis during clustering, the IncuCyte Cytotox Red reagent (Essen BioScience) was added to the medium according to the manufacturer's instructions.

B1: EGF: epidermal growth factor supplemented to culture media at 10 ng/ml (protein, UniProt P01133 23-1207, looked up)
Pro-epidermal growth factor: PQHWSCPEGTLAGNGNSTCVGPAPFLIFSHGNSIFRIDTEGTNYEQLVVDAGVSVIMDFHYNEKRIYWVDLERQLLQRVFLNGSRQERVCNIEKNVSGMAINWINEEVIWSNQQEGIITVTDMKGNNSHILLSALKYPANVAVDPVERFIFWSSEVAGSLYRADLDGVGVKALLETSEKITAVSLDVLDKRLFWIQYNREGSNSLICSCDYDGGSVHISKHPTQHNLFAMSLFGDRIFYSTWKMKTIWIANKHTGKDMVRINLHSSFVPLGELKVVHPLAQPKAEDDTWEPEQKLCKLRKGNCSSTVCGQDLQSHLCMCAEGYALSRDRKYCEDVNECAFWNHGCTLGCKNTPGSYYCTCPVGFVLLPDGKRCHQLVSCPRNVSECSHDCVLTSEGPLCFCPEGSVLERDGKTCSGCSSPDNGGCSQLCVPLSPVSWECDCFPGYDLQLDEKSCAASGPQPFLLFANSQDIRHMHFDGTDYGTLLSQQMGMVYALDHDPVENKIYFAHTALKWIERANMDGSQRERLIEEGVDVPEGLAVDWIGRRFYWTDRGKSLIGRSDLNGKRSKIITKENISQPRGIAVHPMAKRLFWTDTGINPRIESSSLQGLGRLVIASSDLIWPSGITIDFLTDKLYWCDAKQSVIEMANLDGSKRRRLTQNDVGHPFAVAVFEDYVWFSDWAMPSVMRVNKRTGKDRVRLQGSMLKPSSLVVVHPLAKPGADPCLYQNGGCEHICKKRLGTAWCSCREGFMKASDGKTCLALDGHQLLAGGEVDLKNQVTPLDILSKTRVSEDNITESQHMLVAEIMVSDQDDCAPVGCSMYARCISEGEDATCQCLKGFAGDGKLCSDIDECEMGVPVCPPASSKCINTEGGYVCRCSEGYQGDGIHCLDIDECQLGEHSCGENASCTNTEGGYTCMCAGRLSEPGLICPDSTPPPHLREDDHHYSVRNSDSECPLSHDGYCLHDGVCMYIEALDKYACNCVVGYIGERCQYRDLKWWELRHAGHGQQQKVIVVAVCVVVLVMLLLLSLWGAHYYRTQKLLSKNPKNPYEESSRDVRSRRPADTEDGMSSCPQPWFVVIKEHQDLKNGGQPVAGEDGQAADGSMQPTSWRQEPQLCGMGTEQGCWIPVSSDKGSCPQVMERSFHMPSYGTQTLEGGVEKPHSLLSANPLWQQRALDPPHQMELTQ
modifications: Pro-epidermal growth factor
notes: epidermal growth factor supplemented to culture media at 10 ng/ml
  cluster formation of TN primary tumor cells: increased cluster formation

Source: US20220002429A1, “TUMOR CELL AGGREGATION INHIBITORS' FOR TREATING CANCER” (Northwestern University, priority 2018, published 2022)
